Data on 1 molecule can be found in PMC3076238, “Improved mycobacterial protein production using a Mycobacterium smegmatis groEL1ΔC expression strain” (BMC Biotechnology, 2011).

In the test the target is AccA3, α-subunit of the acyl-CoA carboxylase AccD5-AccA3 complex (Rv3285) (M. tuberculosis, UniProt P96890 1-600). Briefly: SEC; […]; 25 mM Tris-HCl pH 8.0, 150 mM NaCl, 1 mM DTT. As to conditions: both partners purified.
Chain of AccA3, α-subunit of the acyl-CoA carboxylase AccD5-AccA3 complex (Rv3285) (P96890 whole entry, one chain of several): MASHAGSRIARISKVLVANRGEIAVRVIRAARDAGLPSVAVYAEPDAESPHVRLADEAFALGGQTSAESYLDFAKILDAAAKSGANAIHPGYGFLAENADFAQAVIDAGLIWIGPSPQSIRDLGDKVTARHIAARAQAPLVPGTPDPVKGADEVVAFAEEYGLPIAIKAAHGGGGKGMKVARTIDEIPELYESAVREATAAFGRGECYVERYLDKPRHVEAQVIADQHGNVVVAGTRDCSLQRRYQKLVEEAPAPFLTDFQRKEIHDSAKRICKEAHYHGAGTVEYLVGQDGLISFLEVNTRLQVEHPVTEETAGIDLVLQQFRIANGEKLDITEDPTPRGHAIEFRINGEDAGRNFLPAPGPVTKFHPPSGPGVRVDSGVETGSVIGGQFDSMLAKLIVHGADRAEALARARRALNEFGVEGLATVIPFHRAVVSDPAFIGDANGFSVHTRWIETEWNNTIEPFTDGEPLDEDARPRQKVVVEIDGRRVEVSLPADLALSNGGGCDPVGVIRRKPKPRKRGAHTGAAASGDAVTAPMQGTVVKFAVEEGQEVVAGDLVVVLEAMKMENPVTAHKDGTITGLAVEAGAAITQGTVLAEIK

B1: AccD5, β-subunit of the acyl-CoA carboxylase AccD5-AccA3 complex (Rv3280), his-tagged (enzyme)
chain: MTSVTDRSAHSAERSTEHTIDIHTTAGKLAELHKRREESLHPVGEDAVEKVHAKGKLTARERIYALLDEDSFVELDALAKHRSTNFNLGEKRPLGDGVVTGYGTIDGRDVCIFSQDATVFGGSLGEVYGEKIVKVQELAIKTGRPLIGINDGAGARIQEGVVSLGLYSRIFRNNILASGVIPQISLIMGAAAGGHVYSPALTDFVIMVDQTSQMFITGPDVIKTVTGEEVTMEELGGAHTHMAKSGTAHYAASGEQDAFDYVRELLSYLPPNNSTDAPRYQAAAPTGPIEENLTDEDLELDTLIPDSPNQPYDMHEVITRLLDDEFLEIQAGYAQNIVVGFGRIDGRPVGIVANQPTHFAGCLDINASEKAARFVRTCDCFNIPIVMLVDVPGFLPGTDQEYNGIIRRGAKLLYAYGEATVPKITVITRKAYGGAYCVMGSKDMGCDVNLAWPTAQIAVMGASGAVGFVYRQQLAEAAANGEDIDKLRLRLQQEYEDTLVNPYVAAERGYVDAVIPPSHTRGYIGTALRLLERKIAQLPPKKHGNVPL
Take B1: the binding result is “binds”.
